# Source: paper PMC10963238, “The bacterial division protein MinDE has an independent function in flagellation” (The Journal of Biological Chemistry, 2024)
# B1: GST-MinD (natural protein, Escherichia coli K-12, UniProt P0AEZ3 1-270, looked up)
# chain: MARIIVVTSGKGGVGKTTSSAAIATGLAQKGKKTVVIDFDIGLRNLDLIMGCERRVVYDFVNVIQGDATLNQALIKDKRTENLYILPASQTRDKDALTREGVAKVLDDLKAMDFEFIVCDSPAGIETGALMALYFADEAIITTNPEVSSVRDSDRILGILASKSRRAENGEEPIKEHLLLTRYNPGRVSRGDMLSMEDVLEILRIKLVGVIPEDQSVLRASNQGEPVILDINADAGKAYADTVERLLGEERPFRFIEEEKKGFLKRLFGG
# notes: MinD of Escherichia coli K-12; ORF amplified from E. coli K-12 genomic DNA; also called GST-tagged MinD; source: dialyzed against 50 mM Hepes pH 7.4, 150 mM KCl, 10% glycerol
# Biological target: T1, His-tagged cytoplasmic part of AtoS (232–608aa, cyto-AtoS) (Escherichia coli K-12, UniProt Q06067 232-608)
# T1 construct: AtoS of Escherichia coli K-12, cytoplasmic part, residues 232-608; also called His-cyto-AtoS; His-AtoS; source: E. coli BL21 [DE3], purified (Ni2+-NTA agarose)
# T1 sequence (looked up): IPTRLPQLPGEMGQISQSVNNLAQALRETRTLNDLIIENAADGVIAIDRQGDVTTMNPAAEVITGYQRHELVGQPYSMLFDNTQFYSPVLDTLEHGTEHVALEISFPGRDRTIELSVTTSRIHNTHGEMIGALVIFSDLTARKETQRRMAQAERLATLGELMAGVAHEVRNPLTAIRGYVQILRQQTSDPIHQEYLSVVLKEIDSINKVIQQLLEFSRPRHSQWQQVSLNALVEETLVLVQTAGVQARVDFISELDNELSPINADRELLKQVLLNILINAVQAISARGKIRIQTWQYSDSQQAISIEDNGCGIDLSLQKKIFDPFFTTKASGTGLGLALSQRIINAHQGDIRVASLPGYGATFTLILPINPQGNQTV
# Test: pull-down; GST-MinD (5 μM) with His-cyto-AtoS (5 μM) in 50 mM Hepes pH 7.4, 150 mM KCl, room temperature 30 min; His-cyto-AtoS held on HisPure cobalt resin, 1 h at 4 °C; washed with 20 mM imidazole, eluted with 300 mM imidazole; Western blot with anti-GST and anti-His
# Settings: both partners purified
binder,measurement,value
B1,binding result,binds
